Results: paper PMC7712654

Biological target: α-CT coiled-coil domain fused with HIS tag (α-CT-His), fluorescently labeled (Arabidopsis thaliana)
Experiment: MST
Conditions: domain or fragment

Sequence of α-CT coiled-coil domain fused with HIS tag (α-CT-His), fluorescently labeled (Arabidopsis thaliana) (Q9LD43 420-769): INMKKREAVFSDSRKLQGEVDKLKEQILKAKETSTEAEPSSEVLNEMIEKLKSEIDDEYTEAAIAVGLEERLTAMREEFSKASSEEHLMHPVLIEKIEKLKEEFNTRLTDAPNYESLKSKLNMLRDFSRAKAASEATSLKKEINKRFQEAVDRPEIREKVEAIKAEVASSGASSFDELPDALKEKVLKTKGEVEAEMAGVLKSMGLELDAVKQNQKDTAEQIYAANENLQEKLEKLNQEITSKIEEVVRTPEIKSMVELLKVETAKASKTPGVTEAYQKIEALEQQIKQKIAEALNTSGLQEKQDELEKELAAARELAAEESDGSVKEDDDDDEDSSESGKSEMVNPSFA

Substance: coiled-coil domain of CTI2, GST tag removed by thrombin
- Kd: 1.4 µM
